Assay results as given in patent US20260124303A1 (MINK THERAPEUTICS, published 2026).
One block for each binder: values may come before it.

Key:
human DPP4 = target: T1, human DPP4 (human, UniProt P27487 1-766); assay: IgG staining of HEK cells transiently expressing the construct
T1 construct: whole, on cells; Transiently expressed in HEK cells; also called hDPP4; dipeptidyl peptidase IV
Excerpt: The constructs were designed on the DPP4 backbone and different FAP fragments were introduced to replace the corresponding DPP4 fragment as shown in FIG. 13D. BFP was used as a marker of transfection and His-tag to confirm expression.
The constructs were transiently expressed in HEK cells and the different IgGs were used to stain the cells.

[1] = target: T2, human FAP (fibroblast activation protein) (human, UniProt Q12884 26-760, limits assumed); assay: SPR (Biacore), human FAP immobilised on CM5 chip by amine coupling, Fab as analyte, 2-fold dilution series from 500 nM
T2 construct: Protein immobilised on the CM5 chip or premixed with Fab in SPR; also called huFAP; hFAP
T2 sequence: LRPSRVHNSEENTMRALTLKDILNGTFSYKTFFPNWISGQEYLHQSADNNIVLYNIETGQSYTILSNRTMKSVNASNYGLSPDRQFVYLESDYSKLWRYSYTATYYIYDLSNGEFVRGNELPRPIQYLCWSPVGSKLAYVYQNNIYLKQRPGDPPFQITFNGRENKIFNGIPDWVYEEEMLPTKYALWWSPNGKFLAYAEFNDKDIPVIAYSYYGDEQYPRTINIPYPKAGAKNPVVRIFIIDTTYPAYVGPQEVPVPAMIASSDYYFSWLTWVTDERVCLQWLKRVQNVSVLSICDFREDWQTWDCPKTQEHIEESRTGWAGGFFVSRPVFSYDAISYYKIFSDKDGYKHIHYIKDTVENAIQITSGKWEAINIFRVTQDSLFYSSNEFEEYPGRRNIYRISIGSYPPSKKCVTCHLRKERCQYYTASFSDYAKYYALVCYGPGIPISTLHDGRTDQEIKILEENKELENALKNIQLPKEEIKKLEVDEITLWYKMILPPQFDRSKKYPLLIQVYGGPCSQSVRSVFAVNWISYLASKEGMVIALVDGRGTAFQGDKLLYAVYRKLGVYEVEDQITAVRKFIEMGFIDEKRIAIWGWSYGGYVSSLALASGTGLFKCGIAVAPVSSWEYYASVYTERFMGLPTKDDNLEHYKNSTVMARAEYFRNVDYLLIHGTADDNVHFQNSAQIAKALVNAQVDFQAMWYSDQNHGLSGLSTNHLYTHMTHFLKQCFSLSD
Method: (§1) 2.5 μg/mL human FAP was immobilized to flow cells 1-4 on CM5 chip by amine coupling. […] 5 μg/mL mouse FAP was immobilized to flow cells 5-8 on CM5 chip by amine coupling. […] Regeneration was done with 2.5 mM NaOH, 1M NaCl.

mouse FAP = target: T3, mouse FAP (mouse, UniProt P97321 26-761, limits assumed); assay: SPR (Biacore), mouse FAP immobilised on CM5 chip by amine coupling, Fab as analyte, 2-fold dilution series from 500 nM
T3 construct: Protein immobilised on the CM5 chip in SPR
T3 sequence (looked up): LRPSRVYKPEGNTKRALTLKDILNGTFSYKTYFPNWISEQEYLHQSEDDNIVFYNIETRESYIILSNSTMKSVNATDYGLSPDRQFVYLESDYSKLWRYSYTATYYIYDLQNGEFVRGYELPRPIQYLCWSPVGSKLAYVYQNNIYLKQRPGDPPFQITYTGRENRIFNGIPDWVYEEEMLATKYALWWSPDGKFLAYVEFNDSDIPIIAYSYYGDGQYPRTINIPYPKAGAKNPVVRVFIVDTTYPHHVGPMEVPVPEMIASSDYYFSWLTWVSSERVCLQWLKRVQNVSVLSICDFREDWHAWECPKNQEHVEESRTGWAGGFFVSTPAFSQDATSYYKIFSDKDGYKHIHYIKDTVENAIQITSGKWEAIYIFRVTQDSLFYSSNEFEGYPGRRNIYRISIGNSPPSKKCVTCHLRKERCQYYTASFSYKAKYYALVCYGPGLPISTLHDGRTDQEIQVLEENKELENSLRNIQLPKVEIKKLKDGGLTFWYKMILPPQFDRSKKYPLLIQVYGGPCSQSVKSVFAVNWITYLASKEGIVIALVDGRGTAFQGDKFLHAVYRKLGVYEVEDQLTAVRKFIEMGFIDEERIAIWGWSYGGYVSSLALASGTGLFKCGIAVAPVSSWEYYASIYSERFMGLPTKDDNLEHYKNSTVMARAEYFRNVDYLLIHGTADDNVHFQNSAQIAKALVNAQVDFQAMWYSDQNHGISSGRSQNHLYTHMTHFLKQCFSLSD
Method: as §1

T1 sequence (P27487 whole entry): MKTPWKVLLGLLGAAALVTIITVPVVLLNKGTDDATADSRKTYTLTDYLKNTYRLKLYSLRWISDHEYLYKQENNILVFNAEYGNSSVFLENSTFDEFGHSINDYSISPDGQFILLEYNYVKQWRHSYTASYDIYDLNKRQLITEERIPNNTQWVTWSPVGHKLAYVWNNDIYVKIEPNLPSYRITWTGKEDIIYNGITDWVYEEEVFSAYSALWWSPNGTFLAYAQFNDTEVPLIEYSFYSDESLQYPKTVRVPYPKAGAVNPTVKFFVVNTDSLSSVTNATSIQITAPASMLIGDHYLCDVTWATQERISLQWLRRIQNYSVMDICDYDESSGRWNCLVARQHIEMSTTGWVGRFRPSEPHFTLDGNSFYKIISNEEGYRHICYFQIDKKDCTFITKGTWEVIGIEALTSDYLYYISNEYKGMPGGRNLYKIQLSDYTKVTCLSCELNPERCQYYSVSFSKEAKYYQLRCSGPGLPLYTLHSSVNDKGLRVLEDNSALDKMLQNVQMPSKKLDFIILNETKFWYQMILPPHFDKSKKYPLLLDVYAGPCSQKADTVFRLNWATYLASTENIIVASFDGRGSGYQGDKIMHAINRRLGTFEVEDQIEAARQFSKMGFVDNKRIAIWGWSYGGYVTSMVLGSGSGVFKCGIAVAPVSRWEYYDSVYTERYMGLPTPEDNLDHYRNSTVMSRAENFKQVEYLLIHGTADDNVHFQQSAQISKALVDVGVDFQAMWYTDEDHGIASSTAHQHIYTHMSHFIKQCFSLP

- binding result (human DPP4): no binding
B1: E07 IgG (antibody, V domains shown)
VH: EVQLLESGGGLVQPGGSLRLSCAASGFTFKSYVMSWVRQAPGKGLEWVSAIVPSGGDTYYADSVKGRFTISRDNSKNTLYLQMNSLRAEDTAVYYCAKDYYGGWFDPWGQGTLVTVSS
VL: not shown

- Kd [1]: 757 nM
- Kd (mouse FAP): 330 nM
B2: A07 Fab (Fab, V domains shown)
VH: QVQLVQSGAEVKKPGSSVKVSCKASGGTFSSYAISWVRQAPGQGLEWMGGIIPIFGTANYAQKFQGRVTITADESTSTAYMELSSLRSEDTAVYYCASPRDCSSTSCYAGIDAFDIWGQGTMVTVSS
VL: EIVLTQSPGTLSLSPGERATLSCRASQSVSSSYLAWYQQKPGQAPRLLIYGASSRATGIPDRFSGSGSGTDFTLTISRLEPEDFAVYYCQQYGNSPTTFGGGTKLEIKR
